Numbering of substitutions follows the chain as printed. Names may count otherwise.
B1: H240-A5E/H240-B3E/L73-k0 (antibody, human IgG1, kappa)
heavy 1: not shown
heavy 2: not shown
light: DIQMTQSPSSLSASVGDRVTITCRASQDIHKYIAWYQQKPGQAPRLLIQYTSTLQPGVPSRFSGSGSGTDYTFTISSLQPEDIATYYCLQYEQLRTFGGGTKVEIKRTVAAPSVFIFPPSDEQLKSGTASVVCLLNNFYPREAKVQWKVDNALQSGNSQESVTEQDSKDSTYSLSSTLTLSKADYEKHKVYACEVTHQGLSSPVTKSFNRGEC
notes: Anti-EREG IgG1 control: H240-G1dE with D356K/H435R in one H chain and K439E in the other, no FcgR-related alterations
B2: GpH7-A5/GpH7-B3/GpL16-k0 (antibody, human IgG1, kappa)
heavy 1: not shown
heavy 2: not shown
light: DIVMTQSPLSLPVTPGEPASISCQASESLVHSNRNTYLHWYLQKPGQSPQLLIYKVSNRFSGVPDRFSGSGSGTDFTLKISRVEAEDVGVYYCSQNTHVPPTFGQGTKVEIERTVAAPSVFIFPPSDEQLKSGTASVVCLLNNFYPREAKVQWKVDNALQSGNSQESVTEQDSKDSTYSLSSTLTLSKADYEKHKVYACEVTHQGLSSPVTKSFNRGEC
notes: also called HeCon Ab; control heterodimerized antibody
B3: GpH7-TA8/GpH7-B3/GpL16-k0 (antibody, human IgG1, kappa)
heavy 1: QVQLVQSGAEVKKPGASVTVSCKASGYTFTDYEMHWIRQPPGEGLEWIGAIDPKTGDTAYSESFQDRVTLTADKSTSTAYMELSSLTSEDTAVYYCTRFYSYTYWGQGTLVTVSSASTKGPSVFPLAPSSKSTSGGTAALGCLVKDYFPEPVTVSWNSGALTSGVHTFPAVLQSSGLYSLSSVVTVPSSSLGTQTYICNVNHKPSNTKVDKKVEPKSCDKTHTCPPCPAPEYLWGPSVFLFPPKPKDTLMISRTPEVTCVVVDVSHEDPEVKFNWYVDGVEVHNAKTKPREEQYNATYRVVSVLTVLHQDWLNGKEYKCKVSNKALRAPIEKTISKAKGQPREPQVYTLPPSRKELTKNQVSLTCLVKGFYPSDIAVEWESNGQPENNYKTTPPVLDSDGSFFLYSKLTVDKSRWQQGNVFSCSVMHEALHNRYTQKSLSLSP
heavy 2: not shown
light: B2 light
notes: Heterodimerized anti-glypican-3 IgG1 variant
B4: GpH7-TA7/GpH7-TA45/GpL16-k0 (antibody, human IgG1, kappa)
heavy 1: B3 heavy 1 with R327P
heavy 2: B3 heavy 1 with R327P, K354D, R433H, K437E
light: B2 light
notes: the chains differ only in D356K/H435R against K439E
B5: GpH7-TA7/GpH7-B3/GpL16-k0 (antibody, human IgG1, kappa)
heavy 1: B3 heavy 1 with R327P
heavy 2: not shown
light: B2 light
notes: as for B3
B6: GpH7-TA7/GpH7-B12/GpL16-k0 (antibody, human IgG1, kappa)
heavy 1: B3 heavy 1 with R327P
heavy 2: not shown
light: B2 light
notes: as for B3

Tests used:
FcgRIa = target: T1, FcgRIa (human, UniProt P12314 16-292); assay: SPR (Biacore), antibody captured on chip, FcgR extracellular domain as analyte
T1 construct: extracellular domain; Expressed in FreeStyle293 cells and purified; used as analyte in Biacore; also called FcγRIa; FcγRI; not shown: His tag attached to the C terminus
T1 sequence (P12314 16-292): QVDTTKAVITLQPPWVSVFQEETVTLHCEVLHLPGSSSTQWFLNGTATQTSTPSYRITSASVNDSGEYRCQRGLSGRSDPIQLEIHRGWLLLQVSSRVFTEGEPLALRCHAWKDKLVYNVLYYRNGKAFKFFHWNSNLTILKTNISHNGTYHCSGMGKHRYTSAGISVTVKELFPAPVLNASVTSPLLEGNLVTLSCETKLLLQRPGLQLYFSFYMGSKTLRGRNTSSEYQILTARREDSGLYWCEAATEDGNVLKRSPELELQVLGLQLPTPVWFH
Description: (§1) Analysis of interaction between obj ective antibody and the FcγR was carried out using Biacore T100 (GE Healthcare), Biacore T200, Biacore A100, and Biacore 4000. HBS-EP+ (GE Healthcare) was used as the running buffer, and the measurement temperature was set to 25° C. Chips produced by immobilizing the antigen peptide by the amine coupling method to a Series S sensor Chip CM5 (GE Healthcare), chips produced by allowing preliminarily biotinylated antigen peptides to interact with and immobilize onto a Series S Sensor Chip SA (certified) (GE Healthcare), chips produced by immobilizing Protein L (ACTIGEN, BioVision) to Series S Sencor Chip CM5 (GE Healthcare), or chips produced by immobilizing Protein A/G (Thermo Scientific) to Series S Sencor Chip CM5 (GE Healthcare) were used. Antibodies of interest were captured onto these chips, and allowed to interact to each FcγR diluted with running buffer. To regenerate and repeatedly use the chip, the antibodies captured onto the chip were washed off by reacting 10 mM glycine-HCl, pH 1.5.

FcgRIIa R = target: T2, FcgRIIa R (human, UniProt P12318 34-217); assay: as above
T2 construct: extracellular domain; also called FcγRIIa R; FcγRIIa type R; not shown: His tag attached to the C terminus
T2 sequence (looked up): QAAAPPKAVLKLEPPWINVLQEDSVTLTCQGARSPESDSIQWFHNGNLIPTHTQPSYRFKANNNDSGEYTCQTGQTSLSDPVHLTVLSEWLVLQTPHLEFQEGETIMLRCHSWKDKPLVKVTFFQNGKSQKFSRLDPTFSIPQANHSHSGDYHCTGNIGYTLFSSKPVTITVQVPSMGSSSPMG
Description: as §1

FcgRIIa H = target: T3, FcgRIIa H (human, UniProt P12318 34-217); assay: as above
T3 construct: extracellular domain; also called FcγRIIa H; FcγRIIa type H; not shown: His tag attached to the C terminus
T3 sequence (looked up): T2 sequence (looked up) with R134H
Description: as §1

FcgRIIb = target: T4, FcgRIIb (human, UniProt P31994 43-217); assay: as above
T4 construct: extracellular domain; Expressed in FreeStyle293 cells and purified; used as analyte in Biacore; also called FcγRIIb; CD32B; not shown: His tag attached to the C terminus
T4 sequence (looked up): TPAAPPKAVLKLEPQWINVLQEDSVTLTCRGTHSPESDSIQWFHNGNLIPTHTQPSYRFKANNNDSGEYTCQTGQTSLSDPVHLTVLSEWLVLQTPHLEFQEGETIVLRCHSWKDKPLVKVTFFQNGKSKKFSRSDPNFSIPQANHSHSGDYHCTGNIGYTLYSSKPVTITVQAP
Description: as §1

FcgRIIIa F = target: T5, FcgRIIIa F (human, UniProt P08637 17-208); assay: as above
T5 construct: extracellular domain; also called FcγRIIIa F; not shown: His tag attached to the C terminus
T5 sequence (P08637 17-208): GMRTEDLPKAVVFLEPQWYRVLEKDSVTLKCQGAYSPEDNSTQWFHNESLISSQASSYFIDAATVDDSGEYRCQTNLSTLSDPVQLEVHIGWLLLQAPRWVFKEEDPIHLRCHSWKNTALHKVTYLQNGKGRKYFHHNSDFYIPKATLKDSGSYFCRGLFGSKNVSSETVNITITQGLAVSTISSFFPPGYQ
Description: as §1

FcgRIIIa V = target: T6, FcgRIIIa V (human, UniProt P08637 17-208); assay: as above
T6 construct: extracellular domain; also called FcγRIIIa V; not shown: His tag attached to the C terminus
T6 sequence (P08637 17-208 F176V limits assumed): as the sequence (P08637 17-208) above, with F160V counted along it
Description: as §1

[1] = target: T7, FcγRIIIa extracellular domain with C-terminal His tag (human, UniProt P08637 17-208); assay: SPR (Biacore), ratio of KD values for FcγRIIIa
T7 construct: extracellular domain; also called FcgRIIIa; CD16A
T7 sequence (P08637 17-208): as the sequence (P08637 17-208) above
From the text: GpH7-A57 (SEQ ID NO: 40) resulting from the introduction of all of S239D, A330L, and I332E into GpH7-A5; GpH7-B78 (SEQ ID NO: 41) resulting from the introduction of all of S239D, A330L, and I332E into GpH7-B3; GpH7-TA7 (SEQ ID NO: 31) resulting from the introduction of all of L234Y, G236W, and S298A into GpH7-A5; and GpH7-TA45 (SEQ ID NO: 32) resulting from the introduction of all of L234Y, G236W, and S298A into GpH7-B3. […] The prepared antibodies were compared for the FcγRIIIa-binding activity using, as an indicator, KD for FcγRIIIa that was determined according to the method described in Reference Example 2.
(§2) Analysis of interaction between objective antibody and the FcγR was carried out using Biacore T100 (GE Healthcare). HBS-EP+ (GE Healthcare) was used as the running buffer, and the measurement temperature was set to 25° C. Chips produced by immobilizing the antigen peptide by the amine coupling method to a Series S Sencor Chip CM5 (GE Healthcare), or alternatively, chips produced by allowing preliminarily biotinylated antigen peptides to interact with and immobilize onto a Series S Sensor Chip SA (certified) (GE Healthcare) were used. Antibodies of interest were captured onto an antigen peptide-immobilized chip, and allowed to interact to each FcγR diluted with running buffer. To regenerate and repeatedly use the chip, the antibodies captured on the chip were washed off by reacting 10 mM glycine-HCl, pH 1.5.

[2] = target: T7, FcγRIIIa extracellular domain with …; assay: SPR (Biacore), antibody captured on antigen peptide chip, FcγR as analyte
Description: Specifically, GpH7-TA7 and GpH7-TA45 (SEQ ID NO: 32) resulting from the introduction of L234Y, G236W, and S298A into GpH7-A5 and GpH7-B3, respectively, were prepared according to the method described in Reference Example 1. […] These antibodies were compared for the FcγRIIIa binding according to the method described in Reference Example 2 (Table 10).
as §2

[3] = target: T7, FcγRIIIa extracellular domain with …; assay: as above; remark: listed apart in the source
Description: GpH7-TA8 (SEQ ID NO: 33) and GpH7-B12 (SEQ ID NO: 12) resulting from the introduction of P329R into GpH7-TA7 and GpH7-B3, respectively, were prepared according to the method described in Reference Example 1.
as §2

[4] = target: T7, FcγRIIIa extracellular domain with …; assay: SPR (Biacore), antibody captured, FcγRIIIa as analyte, 1:1 Langmuir kinetic fit
Description: The prepared antibodies were compared for the FcγRIIIa-binding activity using, as an indicator, KD for FcγRIIIa that was determined according to the method described in Reference Example 2.
as §2
The FcγR-binding activity of each antibody was assessed primarily using as an indicator the FcγR-binding activity and dissociation constant for FcγR.

Binder	KD ratio 1 (KD of GpH7-G1d/GpL16-k0 divided by KD of the antibody) [1] [fold]	KD ratio 2 (KD of GpH7-A5/GpH7-B3/GpL16-k0 divided by KD of the antibody) [1] [fold]	FcγR BINDING ACTIVITY (relative FcγRIIIa binding) [2]	FcγRIIIa BINDING ACTIVITY (relative) [3]	Kd [4] [nM]	also measured
B1	–	–	–	–	–	Kd (FcgRIa): 0.61 nM; Kd (FcgRIIa R): 940 nM; Kd (FcgRIIa H): 910 nM; Kd (FcgRIIb): 4300 nM; Kd (FcgRIIIa F): 1600 nM; Kd (FcgRIIIa V): 330 nM
B2	0.75	1	100 relative, GpH7-A5/GpH7-B3/GpL16-k0 = 100	100 relative, GpH7-A5/GpH7-B3/GpL16-k0 = 100	1600	–
B3	–	–	–	150 relative, GpH7-A5/GpH7-B3/GpL16-k0 = 100	–	–
B4	0.37	0.49	48 relative, GpH7-A5/GpH7-B3/GpL16-k0 = 100	–	3300	–
B5	3.8	5.1	210 relative, GpH7-A5/GpH7-B3/GpL16-k0 = 100	210 relative, GpH7-A5/GpH7-B3/GpL16-k0 = 100	320	–
B6	–	–	–	11 relative, GpH7-A5/GpH7-B3/GpL16-k0 = 100	–	–

From patent US20180155451A1 (published 2018)
